Measured values published in USRE47150 (Bayer, dated 2018).
Positions count from the first letter of the chain named. In names and notes the source's numbering stands.

T1: human tissue factor pathway inhibitor (TFPI) (human, UniProt P10646 29-304, limits assumed)
T1 construct: bought; also called hTFPI; human TFPI
T1 sequence (looked up): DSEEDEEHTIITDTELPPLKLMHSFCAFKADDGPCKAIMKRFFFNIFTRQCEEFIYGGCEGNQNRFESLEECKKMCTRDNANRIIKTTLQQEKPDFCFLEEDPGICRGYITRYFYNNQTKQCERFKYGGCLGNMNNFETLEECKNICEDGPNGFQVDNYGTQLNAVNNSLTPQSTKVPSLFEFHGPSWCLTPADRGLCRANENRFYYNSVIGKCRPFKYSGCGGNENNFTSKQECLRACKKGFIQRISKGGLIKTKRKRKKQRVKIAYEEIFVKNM

T2: mouse tissue factor pathway inhibitor (TFPI) (mouse, UniProt O54819 29-289, limits assumed)
T2 construct: bought; also called mTFPI; murine TFPI
T2 sequence (looked up): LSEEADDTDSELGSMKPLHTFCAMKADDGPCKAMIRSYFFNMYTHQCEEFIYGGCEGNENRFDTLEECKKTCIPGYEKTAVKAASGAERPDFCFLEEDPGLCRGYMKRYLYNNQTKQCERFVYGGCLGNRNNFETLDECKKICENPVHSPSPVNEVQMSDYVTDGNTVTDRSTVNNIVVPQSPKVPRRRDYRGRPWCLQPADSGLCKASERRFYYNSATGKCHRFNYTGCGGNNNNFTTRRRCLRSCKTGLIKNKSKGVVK

B1: 4B7 HC_H103D (Fab, V domains shown)
VH: QVQLQQSGPGLVKPSQTLSLTCAISGDSVSSNSAAWSWIRQSPGRGLEWLGIIYKRSKWYNDYAVSVKSRITINPDTSKNQFSLQLNSVTPEDTAVYYCARWDSDKHWGFDYWGQGTLVTVSS
VL: DIVMTQSPLSLPVTPGEPASISCRSSQSLVFSDGNTYLNWYLQKPGQSPQLLIYKGSNRASGVPDRFSGSGSGTDFTLKISRVEAEDVGVYYCQQYDSYPLTFGQGTKVEIKR
B2: 4B7 LC_N35I (Fab, V domains shown)
VH: B1 VH with D103H
VL: B1 VL with N35I
B3: 4B7 LC_D33F (Fab, V domains shown)
VH: B1 VH with D103H
VL: B1 VL with D33F
B4: 4B7 LC_S32R (Fab, V domains shown)
VH: B1 VH with D103H
VL: B1 VL with S32R
B5: 4B7 LC_N35L LC_G56A (Fab, V domains shown)
VH: B1 VH with D103H
VL: B1 VL with N35L, G56A
B6: 4B7 HC_K58M HC_D62N (Fab, V domains shown)
VH: B1 VH with K58M, D62N, D103H
VL: B1 VL
B7: 4B7 LC_N35L (Fab, V domains shown)
VH: B1 VH with D103H
VL: B1 VL with N35L
B8: 4B7 LC_N35T (Fab, V domains shown)
VH: B1 VH with D103H
VL: B1 VL with N35T
B9: 4B7 HC_N61G (Fab, V domains shown)
VH: B1 VH with N61G, D103H
VL: B1 VL
B10: 4B7 LC_S61C (Fab, V domains shown)
VH: B1 VH with D103H
VL: B1 VL with S61C
B11: 4B7 HC_H107M (Fab, V domains shown)
VH: B1 VH with D103H, H107M
VL: B1 VL
B12: 4B7 LC_D97T (Fab, V domains shown)
VH: B1 VH with D103H
VL: B1 VL with D97T
B13: 4B7 LC_D33F LC_Y54F (Fab, V domains shown)
VH: B1 VH with D103H
VL: B1 VL with D33F, Y54F
B14: 4B7 HC_S33G (Fab, V domains shown)
VH: B1 VH with S33G, D103H
VL: B1 VL
B15: 4B7 HC_S57K (Fab, V domains shown)
VH: B1 VH with S57K, D103H
VL: B1 VL
B16: 4B7 LC_S57Y (Fab, V domains shown)
VH: B1 VH with D103H
VL: B1 VL with S57Y
B17: 4B7 HC_S30R HC_S57K (Fab, V domains shown)
VH: B1 VH with S30R, S57K, D103H
VL: B1 VL
B18: 4B7 LC_S32Y (Fab, V domains shown)
VH: B1 VH with D103H
VL: B1 VL with S32Y
B19: 4B7 LC_D33R (Fab, V domains shown)
VH: B1 VH with D103H
VL: B1 VL with D33R
B20: 4B7 LC_F31M (Fab, V domains shown)
VH: B1 VH with D103H
VL: B1 VL with F31M
B21: 4B7 HC_N61G HC_D62V (Fab, V domains shown)
VH: B1 VH with N61G, D62V, D103H
VL: B1 VL
B22: 4B7 LC_F31I (Fab, V domains shown)
VH: B1 VH with D103H
VL: B1 VL with F31I
B23: 4B7 HC_N32D (Fab, V domains shown)
VH: B1 VH with N32D, D103H
VL: B1 VL
B24: 4B7 LC_Y37F (Fab, V domains shown)
VH: B1 VH with D103H
VL: B1 VL with Y37F
B25: 4B7 LC_D97M (Fab, V domains shown)
VH: B1 VH with D103H
VL: B1 VL with D97M
B26: 4B7 LC_N35V LC_G56D (Fab, V domains shown)
VH: B1 VH with D103H
VL: B1 VL with N35V, G56D
B27: 4B7 HC_H103G (Fab, V domains shown)
VH: B1 VH with D103G
VL: B1 VL
B28: 4B7 HC_Y112D (Fab, V domains shown)
VH: B1 VH with D103H, Y112D
VL: B1 VL
B29: 4B7 HC_N32E (Fab, V domains shown)
VH: B1 VH with N32E, D103H
VL: B1 VL
B30: 4B7 HC_H107M LC_F31I (Fab, V domains shown)
VH: B1 VH with D103H, H107M
VL: B1 VL with F31I
B31: B9.7 (4B7 HC N32D+D62R+Y112D/LC S32R+N35I) (Fab, V domains shown)
VH: B1 VH with N32D, D62R, D103H, Y112D
VL: B1 VL with S32R, N35I
B32: gB9.7-IgG (4B7 HC N32D+G44S+K55Y+D62R+Y112D/LC S32R+N35I) (antibody, V domains shown)
VH: B1 VH with N32D, G44S, K55Y, D62R, D103H, Y112D
VL: B1 VL with S32R, N35I
notes: IgG format by its name
B33: B2.0 (4B7 HC N32D+D62R+Y112D/LC S32R+D33F+N35I+D97T) (Fab, V domains shown)
VH: B1 VH with N32D, D62R, D103H, Y112D
VL: B1 VL with S32R, D33F, N35I, D97T

These binders were tested against T1, human tissue factor pathway inhibitor … (assay: competitive ELISA).

Row | variant/wild-type [ratio] | Binder
1 | 2.4 | B1
2 | 3.6 | B2
3 | 5.3 | B3
4 | 4.2 | B4
5 | 3.1 | B5
6 | 6.6 | B6
7 | 2.1 | B7
8 | 5.4 | B8
9 | 2.2 | B9
10 | 3.1 | B10
11 | 8.1 | B11
12 | 1.8 | B12
13 | 4.3 | B13
14 | 1.5 | B14
15 | 1.7 | B15
16 | 1.6 | B16
17 | 1.6 | B17
18 | 2 | B18
19 | 3.6 | B19
20 | 1.7 | B20
21 | 8 | B21
22 | 9.1 | B22
23 | 3.8 | B23
24 | 3.6 | B24
25 | 2.4 | B25
26 | 1.9 | B26
27 | 1.4 | B27
28 | 2.9 | B28
29 | 3.2 | B29
30 | 1.7 | B30

Each binder was assayed against T1, human tissue factor pathway inhibitor … (assay: SPR, TFPI immobilized).

Row | KD fold improvement [fold] | Kd [pM] | koff [s⁻¹] | kon [M⁻¹ s⁻¹] | Binder
31 | 1270 | 8.78 | 2.61e-05 | 2.97e+06 | B31
32 | 1450 | 7.65 | 1.56e-05 | 2.03e+06 | B32
33 | 2180 | 5.1 | 3.81e-05 | 7.46e+06 | B33

Molecular target: T1, human tissue factor pathway inhibitor …
Assay: competitive ELISA
Remark: another data set of the same source

Row | variant/HC_D62R [ratio] | Binder
34 | 26.1 | B31
35 | 26.2 | B33

These binders were tested against T2, mouse tissue factor pathway inhibitor … (assay: competitive ELISA).

Row | variant/HC_D62R [ratio] | Binder
36 | 30.1 | B31
37 | 40 | B33

Each binder was assayed against T2, mouse tissue factor pathway inhibitor … (assay: SPR, TFPI immobilized).

Row | KD fold improvement [fold] | Kd [pM] | koff [s⁻¹] | kon [M⁻¹ s⁻¹] | Binder
38 | 588 | 93.1 | 0.000334 | 3.59e+06 | B31
39 | 6250 | 8.75 | 2.36e-05 | 2.7e+06 | B32
40 | 1210 | 45.1 | 0.000315 | 6.99e+06 | B33

These binders were tested against T2, mouse tissue factor pathway inhibitor … (assay: equilibrium ELISA).

Row | variant/wild-type [ratio] | Binder
41 | 12.9 | B1
42 | 7.1 | B2
43 | 7 | B3
44 | 7.8 | B4
45 | 6.9 | B5
46 | 15.2 | B6
47 | 6 | B7
48 | 3.4 | B8
49 | 1.4 | B9
50 | 15.3 | B10
51 | 5.6 | B11
52 | 5.5 | B12
53 | 7.9 | B13
54 | 6.5 | B14
55 | 6.5 | B15
56 | 2.2 | B16
57 | 6.6 | B17
58 | 6.7 | B18
59 | 7.2 | B19
60 | 1.3 | B20
61 | 31.1 | B21
62 | 23.6 | B22
63 | 6 | B23
64 | 1.9 | B24
65 | 1.3 | B25
66 | 8.2 | B26
67 | 10.7 | B27
68 | 5.7 | B28
69 | 2.1 | B29
70 | 9.2 | B30
